Measured values taken from paper doi:10.1101/2024.04.04.584535, “Human Saposin B Ligand Binding and Presentation to α-Galactosidase A” (bioRxiv, 2024).

B2: α-galactosidase A D170A (catalytic nucleophile mutant) (enzyme, human)
chain: LDNGLARTPTMGWLHWERFMCNLDCQEEPDSCISEKLFMEMAELMVSEGWKDAGYEYLCIDDCWMAPQRDSEGRLQADPQRFPHGIRQLANYVHSKGLKLGIYADVGNKTCAGFPGSFGYYDIDAQTFADWGVDLLKFAGCYCDSLENLADGYKHMSLALNRTGRSIVYSCEWPLYMWPFQKPNYTEIRQYCNHWRNFADIDDSWKSIKSILDWTSFNQERIVDVAGPGGWNDPDMLVIGNFGLSWNQQVTQMALWAIMAAPLFMSNDLRHISPQAKALLQDKDVIAINQDPLGKQGYQLRQGDNFEVWERPLSGLAWAVAMINRQEIGGPRSYTIAVASLGKGVACNPACFITQLLPVKRKLGFYEWTSRLRSHINPTGTVLLQLENTMQMSLKDLL
notes: human α-galactosidase A (UniProt P06280), D170A mutant; Secreted into the Sf9 supernatant, so the signal peptide is probably removed (surmised); Glycosylated; Homodimer; also called GLA^D170A; GLA

Experiments:
[1] = target: T1, SapB (saposin B; sphingolipid activator protein B) (Homo sapiens, UniProt P07602); assay: NBD fluorescence equilibrium binding (pH […] days), weak; set-up: gene PSAP; mature saposin B, E. coli expressed
T1 sequence (P07602 195-273): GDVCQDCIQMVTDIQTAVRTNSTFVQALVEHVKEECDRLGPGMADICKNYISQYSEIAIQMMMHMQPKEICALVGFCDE

SapD (saposin D) = target: T2, SapD (saposin D) (Homo sapiens, UniProt P07602); assay: NBD fluorescence equilibrium binding, acidic pH only
T2 construct: gene PSAP; mature saposin D, E. coli expressed
T2 sequence (P07602 405-486): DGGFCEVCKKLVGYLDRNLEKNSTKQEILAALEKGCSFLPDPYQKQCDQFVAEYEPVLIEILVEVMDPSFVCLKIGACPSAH

[2] = target: T1, SapB (saposin B; sphingolipid activator protein B); assay: NBD fluorescence equilibrium binding (pH […] h); also SEC co-migration and LC-MS of co-crystals; set-up: gene PSAP; mature saposin B, E. coli expressed (SapB dimer)
[3] = target: T3, α-galactosidase A, wild type (human, UniProt P06280 32-429)
T3 sequence (looked up): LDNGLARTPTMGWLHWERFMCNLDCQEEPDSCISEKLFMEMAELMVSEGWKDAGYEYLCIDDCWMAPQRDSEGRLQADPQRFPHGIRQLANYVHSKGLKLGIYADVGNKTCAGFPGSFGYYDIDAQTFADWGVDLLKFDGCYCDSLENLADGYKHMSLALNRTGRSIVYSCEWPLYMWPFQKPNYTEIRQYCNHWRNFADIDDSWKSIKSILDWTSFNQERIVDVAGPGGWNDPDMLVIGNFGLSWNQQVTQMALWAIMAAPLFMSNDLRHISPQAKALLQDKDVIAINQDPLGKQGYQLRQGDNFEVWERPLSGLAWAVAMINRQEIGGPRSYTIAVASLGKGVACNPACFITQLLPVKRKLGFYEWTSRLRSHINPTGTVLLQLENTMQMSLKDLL

[4] = target: Sphingolipid activator protein B (saposin B) (human) (UniProt P07602); assay: crystal structure; SapB co-crystallised with Gb3-NBD at about molar equivalence; 3.25 M malonate pH 5, 20 °C; 2.68 Å
[5] = target: Sphingolipid activator protein B (saposin B) (human) (UniProt P07602); assay: cross-linking; BS3 cross-linker (0-1 mM), 10 μM GLA^D170A or GAA, 50-100 μM SapB (with 20% SapB^ANBD in some gels) or 100 μM SapD, 0-200 μM Gb3-NBD, PBS pH 6.5, one hour; Tricine-SDS-PAGE with One-Step Blue stain, in-gel NBD fluorescence and anti-GLA western blot; also at 10 μM SapB^ANBD, 1 μM GLA^D170A, 50 μM Gb3-NBD
purified protein = substrate: O=[N+]([O-])c1ccc(O[C@H]2O[C@H](CO)[C@H](O)[C@H](O)[C@H]2O)cc1; assay: purified protein; type: biochemical, Homo sapiens
[6] = target: the molecule itself; assay: crystal structure; SapB preincubated with DDAO detergent (~1:47) at pH 5, mixed with GLA^D170A; crystals in 0.1 M Tris pH 8, 1 M ammonium sulfate, 20 °C; 3.53 Å
[7] = target: T3, α-galactosidase A, wild type; assay: cell-based or functional assay
[8] = target: B2; assay: cross-linking; BS3 cross-linker (0-1 mM), 10 μM GLA^D170A or GAA, 50-100 μM SapB (with 20% SapB^ANBD in some gels) or 100 μM SapD, 0-200 μM Gb3-NBD, PBS pH 6.5, one hour; Tricine-SDS-PAGE with One-Step Blue stain, in-gel NBD fluorescence and anti-GLA western blot; also at 10 μM SapB^ANBD, 1 μM GLA^D170A, 50 μM Gb3-NBD; conditions: both partners purified

**Q.** How did the Kd [1] turn out when `CCCCCCCCCCCCCCC[C@@H](O)[C@H](CO)NC(=O)CCCCCCCCCCCNc1ccc([N+](=O)[O-])c2nonc12` [Cer-NBD] was run?
**A.** > 95 µM

**Q.** With `CCCCCCCCCCCCC/C=C/[C@@H](O)[C@H](CO[C@@H]1O[C@H](CO)[C@@H](O[C@@H]2O[C@H](CO)[C@H](O[C@H]3O[C@H](CO)[C@H](O)[C@H](O)[C@H]3O)[C@H](O)[C@H]2O)[C@H](O)[C@H]1O)NC(=O)CCCCCCCCCCCNc1ccc([N+](=O)[O-])c2nonc12` [Gb3-NBD] as the molecule, how does the Kd (SapD (saposin D)) read?
**A.** 38 ± 2 µM

**Q.** What about the Kd [2] of the same molecule?
**A.** 5.8 ± 0.5 µM

**Q.** “SapB^ANBD (SapB N21C labelled with IANBD amide) (natural protein)” was tested. Which galactose production from Gb3-NBD by GLA in an 18-hour enzyme-activator assay, relative to wild-type SapB [3] did it give?
**A.** 80%

**Q.** How did the stoichiometry N [4] turn out when “Sphingolipid activator protein B (saposin B) (from UniProt P07602 195-273) (natural protein)” was run?
**A.** 2

**Q.** And the stoichiometry N [5]?
**A.** 2

B1: α-galactosidase A (GLA) (Homo sapiens) (protein)
chain: LDNGLARTPTMGWLHWERFMCNLDCQEEPDSCISEKLFMEMAELMVSEGWKDAGYEYLCIDDCWMAPQRDSEGRLQADPQRFPHGIRQLANYVHSKGLKLGIYADVGNKTCAGFPGSFGYYDIDAQTFADWGVDLLKFDGCYCDSLENLADGYKHMSLALNRTGRSIVYSCEWPLYMWPFQKPNYTEIRQYCNHWRNFADIDDSWKSIKSILDWTSFNQERIVDVAGPGGWNDPDMLVIGNFGLSWNQQVTQMALWAIMAAPLFMSNDLRHISPQAKALLQDKDVIAINQDPLGKQGYQLRQGDNFEVWERPLSGLAWAVAMINRQEIGGPRSYTIAVASLGKGVACNPACFITQLLPVKRKLGFYEWTSRLRSHINPTGTVLLQLENTMQMSLKDLL
notes: wild-type human GLA, C-terminal 2x-FLAG, Sf9 expressed
**Q.** With B1 as the molecule, how does the Km (purified protein) read?
**A.** 9.9 mM

**Q.** For B2, which Km (purified protein) is on record?
**A.** 7.4 mM

**Q.** What about the “stoichiometry N” value [6] of the same molecule?
**A.** 2

B3: Saposin D (natural protein, human, UniProt P07602 405-486, looked up)
chain: DGGFCEVCKKLVGYLDRNLEKNSTKQEILAALEKGCSFLPDPYQKQCDQFVAEYEPVLIEILVEVMDPSFVCLKIGACPSAH
notes: saposin D, the mature cut product of prosaposin (UniProt P07602); Tag printed as enterokinase-cleavable N-terminal His8-DDDDK-GAS; GAS probably left after cleavage (surmised); also called SapD; source: E. coli Shuffle T7 Express, purified (heat shock, Ni agarose, enterokinase cleavage, SEC); not shown: His8, N-terminal, cleaved
**Q.** For B3, which “free galactose released from Gb3-NBD by wild-type GLA after 2.5 hours in acidic buffer (Amplex Red galactose assay); SapD at a tenfold molar excess to GLA” value [7] is on record?
**A.** ~5 µM

**Q.** Does B3 bind [8]?
**A.** binds
